Test results: the supplement of paper PMC5998384

Tests used:
HeLa Kyoto [1] = experiment: solubility change mitosis vs G1/S (difference of NP-40 vs SDS log2 ratios) (log2 ratio difference); higher = more soluble in mitosis
HeLa Kyoto [2] = experiment: melting temperature (median over replicates), in situ; higher = more thermally stable
HeLa Kyoto [3] = experiment: solubility in G1/S (NP-40 vs SDS abundance) (log2 ratio); higher = more soluble; settings: cell cycle stage: G1/S
HeLa Kyoto [4] = experiment: thermal stability score vs G1/S (z-score of summed log2 fold changes over temperatures); higher = more thermally stable than in G1/S
[5] = cell cycle stage: early G1 (4.5 h after nocodazole release)
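Wherever melting temperature (median over replicates), in situ is given: HeLa Kyoto cells synchronized by double thymidine or nocodazole block, proteins quantified by TMT10plex mass spectrometry, three independent biological replicates.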
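Wherever solubility change mitosis vs G1/S (difference of NP-40 vs SDS log2 ratios) is given: synchronized HeLa Kyoto cells (double thymidine block for G1/S, nocodazole release for mitosis), protein amounts in NP-40 versus SDS lysates quantified by mass spectrometry, three biological replicates.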
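Wherever solubility in G1/S (NP-40 vs SDS abundance) is given: HeLa Kyoto cells arrested at G1/S by double thymidine block, proteins quantified by TMT10plex mass spectrometry in mild NP-40 versus SDS extracts, three biological replicates.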
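Wherever thermal stability score vs G1/S (z-score of summed log2 fold changes over temperatures) is given: synchronized HeLa Kyoto cells, proteins quantified by TMT10plex mass spectrometry, three biological replicates, mitosis taken 0.5 h after nocodazole release, G1/S directly after double thymidine block.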

| Sequence | solubility change mitosis (log2) (HeLa Kyoto [1]) | melting temperature (HeLa Kyoto [2]; cell cycle stage: G1/S) [°C] | melting temperature (HeLa Kyoto [2]; cell cycle stage: mitosis) [°C] | solubility in G1/S (log2) (HeLa Kyoto [3]) | thermal stability score (HeLa Kyoto [4]; [5]) | thermal stability score (HeLa Kyoto [4]; cell cycle stage: mitosis) |
| --- | --- | --- | --- | --- | --- | --- |
| MLTKFETKSARVKGLSFHPKRPWILTSLHNGVIQLWDYRMCTLIDKFDEHDGPVRGIDFHKQQPLFVSGGDDYKIKVWNYKLRRCLFTLLGHLDYIRTTFFHHEYPWILSASDDQTIRVWNWQSRTCVCVLTGHNHYVMCAQFHPTEDLVVSASLDQTVRVWDISGLRKKNLSPGAVESDVRGITGVDLFGTTDAVVKHVLEGHDRGVNWAAFHPTMPLIVSGADDRQVKIWRMNESKAWEVDTCRGHYNNVSCAVFHPRQELILSNSEDKSIRVWDMSKRTGVQTFRRDHDRFWVLAAHPNLNLFAAGHDGGMIVFKLERERPAYAVHGNMLHYVKDRFLRQLDFNSSKDVAVMQLRSGSKFPVFNMSYNPAENAVLLCTRASNLENSTYDLYTIPKDADSQNPDAPEGKRSSGLTAVWVARNRFAVLDRMHSLLIKNLKNEITKKVQVPNCDEIFYAGTGNLLLRDADSITLFDVQQKRTLASVKISKVKYVIWSADMSHVALLAKHAIVICNRKLDALCNIHENIRVKSGAWDESGVFIYTTSNHIKYAVTTGDHGIIRTLDLPIYVTRVKGNNVYCLDRECRPRVLTIDPTEFKFKLALINRKYDEVLHMVRNAKLVGQSIIAYLQKKGYPEVALHFVKDEKTRFSLALECGNIEIALEAAKALDDKNCWEKLGEVALLQGNHQIVEMCYQRTKNFDKLSFLYLITGNLEKLRKMMKIAEIRKDMSGHYQNALYLGDVSERVRILKNCGQKSLAYLTAATHGLDEEAESLKETFDPEKETIPDIDPNAKLLQPPAPIMPLDTNWPLLTVSKGFFEGTIASKGKGGALAADIDIDTVGTEGWGEDAELQLDEDGFVEATEGLGDDALGKGQEEGGGWDVEEDLELPPELDISPGAAGGAEDGFFVPPTKGTSPTQIWCNNSQLPVDHILAGSFETAMRLLHDQVGVIQFGPYKQLFLQTYARGRTTYQALPCLPSMYGYPNRNWKDAGLKNGVPAVGLKLNDLIQRLQLCYQLTTVGKFEEAVEKFRSILLSVPLLVVDNKQEIAEAQQLITICREYIVGLSVETERKKLPKETLEQQKRICEMAAYFTHSNLQPVHMILVLRTALNLFFKLKNFKTAATFARRLLELGPKPEVAQQTRKILSACEKNPTDAYQLNYDMHNPFDICAASYRPIYRGKPVEKCPLSGACYSPEFKGQICRVTTVTEIGKDVIGLRISPLQFR [COPA] | -0.16 | 51 | 50.3 | -0.365 | -0.819 | -0.346 |
| MLVHLFRVGIRGGPFPGRLLPPLRFQTFSAVRNTWRNGKTGQLHKAEGEYSDGYRSSSLLRAVAHLRSQLWAHLPRAPLAPRWSPSAWCWVGGALLGPMVLSKHPHLCLVALCEAEEAPPASSTPHVVGSRFNWKLFWQFLHPHLLVLGVAVVLALGAALVNVQIPLLLGQLVEVVAKYTRDHVGSFMTESQNLSTHLLILYGVQGLLTFGYLVLLSHVGERMAVDMRRALFSSLLRQDITFFDANKTGQLVSRLTTDVQEFKSSFKLVISQGLRSCTQVAGCLVSLSMLSTRLTLLLMVATPALMGVGTLMGSGLRKLSRQCQEQIARAMGVADEALGNVRTVRAFAMEQREEERYGAELEACRCRAEELGRGIALFQGLSNIAFNCMVLGTLFIGGSLVAGQQLTGGDLMSFLVASQTVQRSMANLSVLFGQVVRGLSAGARVFEYMALNPCIPLSGGCCVPKEQLRGSVTFQNVCFSYPCRPGFEVLKDFTLTLPPGKIVALVGQSGGGKTTVASLLERFYDPTAGVVMLDGRDLRTLDPSWLRGQVVGFISQEPVLFGTTIMENIRFGKLEASDEEVYTAAREANAHEFITSFPEGYNTVVGERGTTLSGGQKQRLAIARALIKQPTVLILDEATSALDAESERVVQEALDRASAGRTVLVIAHRLSTVRGAHCIVVMADGRVWEAGTHEELLKKGGLYAELIRRQALDAPRTAAPPPKKPEGPRSHQHKS [ABCB8] | 0.155 | 51.1 | – | -0.36 | 0.49 | -0.355 |
| MLVLFETSVGYAIFKVLNEKKLQEVDSLWKEFETPEKANKIVKLKHFEKFQDTAEALAAFTALMEGKINKQLKKVLKKIVKEAHEPLAVADAKLGGVIKEKLNLSCIHSPVVNELMRGIRSQMDGLIPGVEPREMAAMCLGLAHSLSRYRLKFSADKVDTMIVQAISLLDDLDKELNNYIMRCREWYGWHFPELGKIISDNLTYCKCLQKVGDRKNYASAKLSELLPEEVEAEVKAAAEISMGTEVSEEDICNILHLCTQVIEISEYRTQLYEYLQNRMMAIAPNVTVMVGELVGARLIAHAGSLLNLAKHAASTVQILGAEKALFRALKSRRDTPKYGLIYHASLVGQTSPKHKGKISRMLAAKTVLAIRYDAFGEDSSSAMGVENRAKLEARLRTLEDRGIRKISGTGKALAKTEKYEHKSEVKTYDPSGDSTLPTCSKKRKIEQVDKEDEITEKKAKKAKIKVKVEEEEEEKVAEEEETSVKKKKKRGKKKHIKEEPLSEEEPCTSTAIASPEKKKKKKKKRENED [NOP58] | 1.07 | 52.5 | 51.5 | -1.64 | -0.671 | -1.23 |
| MLWSGCRRFGARLGCLPGGLRVLVQTGHRSLTSCIDPSMGLNEEQKEFQKVAFDFAAREMAPNMAEWDQKELFPVDVMRKAAQLGFGGVYIQTDVGGSGLSRLDTSVIFEALATGCTSTTAYISIHNMCAWMIDSFGNEEQRHKFCPPLCTMEKFASYCLTEPGSGSDAASLLTSAKKQGDHYILNGSKAFISGAGESDIYVVMCRTGGPGPKGISCIVVEKGTPGLSFGKKEKKVGWNSQPTRAVIFEDCAVPVANRIGSEGQGFLIAVRGLNGGRINIASCSLGAAHASVILTRDHLNVRKQFGEPLASNQYLQFTLADMATRLVAARLMVRNAAVALQEERKDAVALCSMAKLFATDECFAICNQALQMHGGYGYLKDYAVQQYVRDSRVHQILEGSNEVMRILISRSLLQE [ACAD8] | -0.0672 | 54.9 | 55.2 | -0.0509 | -0.89 | -3.82 |
| MMAIRELKVCLLGDTGVGKSSIVCRFVQDHFDHNISPTIGASFMTKTVPCGNELHKFLIWDTAGQERFHSLAPMYYRGSAAAVIVYDITKQDSFYTLKKWVKELKEHGPENIVMAIAGNKCDLSDIREVPLKDAKEYAESIGAIVVETSAKNAINIEELFQGISRQIPPLDPHENGNNGTIKVEKPTMQASRRCC [RAB31] | 0.0123 | 54.6 | 53.9 | -0.166 | -1.38 | -0.537 |
| MMCEVMPTISEAEGPPGGGGGHGSGSPSQPDADSHFEQLMVSMLEERDRLLDTLRETQETLALTQGKLHEVGHERDSLQRQLNTALPQEFAALTKELNVCREQLLEREEEIAELKAERNNTRLLLEHLECLVSRHERSLRMTVVKRQAQSPAGVSSEVEVLKALKSLFEHHKALDEKVRERLRVALERCSLLEEELGATHKELMILKEQNNQKKTLTDGVLDINHEQENTPSTSGKRSSDGSLSHEEDLAKVIELQEIISKQSREQSQMKERLASLSSHVTELEEDLDTARKDLIKSEEMNTKLQRDVREAMAQKEDMEERITTLEKRYLAAQREATSVHDLNDKLENEIANKDSMHRQTEDKNRQLQERLELAEQKLQQTLRKAETLPEVEAELAQRVAALSKAEERHGNIEERLRQMEAQLEEKNQELQRARQREKMNEEHNKRLSDTVDKLLSESNERLQLHLKERMAALEDKNSLLREVESAKKQLEETQHDKDQLVLNIEALRAELDHMRLRGASLHHGRPHLGSVPDFRFPMADGHTDSYSTSAVLRRPQKGRLAALRDEPSKVQTLNEQDWERAQQASVLANVAQAFESDADVSDGEDDRDTLLSSVDLLSPSGQADAHTLAMMLQEQLDAINKEIRLIQEEKENTEQRAEEIESRVGSGSLDNLGRFRSMSSIPPYPASSLASSSPPGSGRSTPRRIPHSPAREVDRLGVMTLLPPSREEVRDDKTTIKCETSPPSSPRALRLDRLHKGALHTVSHEDIRDIRNSTGSQDGPVSNPSSSNSSQDSLHKAPKKKGIKSSIGRLFGKKEKGRPGQTGKEALGQAGVSETDNSSQDALGLSKLGGQAEKNRKLQKKHELLEEARRQGLPFAQWDGPTVVVWLELWVGMPAWYVAACRANVKSGAIMSALSDTEIQREIGISNPLHRLKLRLAIQEIMSLTSPSAPPTSRTTLAYGDMNHEWIGNEWLPSLGLPQYRSYFMECLVDARMLDHLTKKDLRGQLKMVDSFHRNSFQCGIMCLRRLNYDRKELERKREESQSEIKDVLVWSNDRVIRWILSIGLKEYANNLIESGVHGALLALDETFDFSALALLLQIPTQNTQARAVLEREFNNLLVMGTDRRFDEDDDKSFRRAPSWRKKFRPKDIRGLAAGSAETLPANFRVTSSMSSPSMQPKKMQMDGNVSGTQRLDSATVRTYSC [PPFIA1] | -0.0196 | 49.8 | 50.2 | 0.137 | 1.52 | 1.91 |
| MMEESGIETTPPGTPPPNPAGLAATAMSSTPVPLAATSSFSSPNVSSMESFPPLAYSTPQPPLPPVRPSAPLPFVPPPAVPSVPPLVTSMPPPVSPSTAAAFGNPPVSHFPPSTSAPNTLLPAPPSGPPISGFSVGSTYDITRGHAGRAPQTPLMPSFSAPSGTGLLPTPITQQASLTSLAQGTGTTSAITFPEEQEDPRITRGQDEASAGGIWGFIKGVAGNPMVKSVLDKTKHSVESMITTLDPGMAPYIKSGGELDIVVTSNKEVKVAAVRDAFQEVFGLAVVVGEAGQSNIAPQPVGYAAGLKGAQERIDSLRRTGVIHEKQTAVSVENFIAELLPDKWFDIGCLVVEDPVHGIHLETFTQATPVPLEFVQQAQSLTPQDYNLRWSGLLVTVGEVLEKSLLNVSRTDWHMAFTGMSRRQMIYSAARAIAGMYKQRLPPRTV [PRRC1] | -0.346 | 58.8 | 58 | 0.495 | -1.27 | -1.08 |
| MMEGLDDGPDFLSEEDRGLKAINVDLQSDAALQVDISDALSERDKVKFTVHTKSSLPNFKQNEFSVVRQHEEFIWLHDSFVENEDYAGYIIPPAPPRPDFDASREKLQKLGEGEGSMTKEEFTKMKQELEAEYLAIFKKTVAMHEVFLCRVAAHPILRRDLNFHVFLEYNQDLSVRGKNKKEKLEDFFKNMVKSADGVIVSGVKDVDDFFEHERTFLLEYHNRVKDASAKSDRMTRSHKSAADDYNRIGSSLYALGTQDSTDICKFFLKVSELFDKTRKIEARVSADEDLKLSDLLKYYLRESQAAKDLLYRRSRSLVDYENANKALDKARAKNKDVLQAETSQQLCCQKFEKISESAKQELIDFKTRRVAAFRKNLVELAELELKHAKGNLQLLQNCLAVLNGDT [SNX6] | -0.0637 | 51.1 | 50.1 | 0.426 | 1.82 | 0.524 |
| MMPGPRPRKGPQARGQGVAAAKQMGLFMEFGPEDMLLGMDEAEDDEDLEAELLALTGEAQTTGKKPAPKGQAPLPMAHIEKLAADCMRDVEEEEEEEGLEEDAELLTELQEVLGVDEETEPLDGDEVADPGGSEEENGLEDTEPPVQTAVLTASAPAAQAGASQGLHALLEERIHNYREAAASAKEAGEAAKARRCERGLKTLESQLASVRRGRKINEDEIPPPVALGKRPLAPQEPANRSPETDPPAPPALESDNPSQPETSLPGISAQPVSDLDPDPRALLSSRQREYKVAALSAKRAGELDRARELMRIGKRFGAVLEALEKGQPVDLSAMPPAPEDLKPQQASQAPTAPSVIPPAVERVQPVMAPDVPATPVAPTESQTVLDALQQRLNKYREAGIQARSGGDERKARMHERIAKQYQDAIRAHRAGRKVNFAELPVPPGFPPIPGLESTMGVEEDAVAATLAAAEKLASAEDSAPADKDEDEPPGHLQGEPPAQAPVAKKPARPTVPSSQRLPEPRASSSKESPSPSVREQLALLEARKLQYQRAALQAKRSQDLEQAKAYLRVAKWLEAQIIQARSGRPVDLSKVPSPLTDEEGDFILIHHEDLRLSQKAEEVYAQLQKMLLEQQEKCLLFSKQFMHQGNVAETTRFEKLAQDRKKQLEILQLAQAQGLDPPTHHFELKTFQTVRIFSELNSTEMHLIIVRGMNLPAPPGVTPDDLDAFVRFEFHYPNSDQAQKSKTAVVKNTNSPEFDQLFKLNINRNHRGFKRVIQSKGIKFEIFHKGSFFRSDKLVGTAHLKLERLENECEIREIVEVLDGRKPTGGKLEVKVRLREPLSGQDVQMVTENWLVLEPRGL [CC2D1B] | -0.000596 | 50.4 | 50.3 | 0.252 | 0.395 | 0.256 |
